One assay addresses T1, 人TIGIT-His (human, UniProt Q495A1 22-141, limits assumed).
T1 construct: Loaded on Ni-NTA sensors in the BLI runs; also called Human TIGIT(His tag); not shown: His tag
T1 sequence (looked up): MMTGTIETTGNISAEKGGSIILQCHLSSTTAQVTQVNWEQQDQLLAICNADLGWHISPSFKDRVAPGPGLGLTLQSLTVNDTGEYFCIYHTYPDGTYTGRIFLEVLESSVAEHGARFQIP
Briefly: BLI (ForteBio Octet QK), Human TIGIT(His tag) on Ni-NTA sensor, antibody 3.125-100 nM; order of magnitude only.

Another assay addresses T2, 人TIGIT (human, UniProt Q495A1 22-141, limits assumed).
T2 construct: also called 人TIGIT抗原
T2 sequence (looked up): T1 sequence (looked up)
Nature of the assay: ELISA, human TIGIT coated, HRP goat anti-mouse IgG.

B1: 鼠单克隆抗体Mab21 (antibody, mouse IgG2b, V domains shown)
VH: EVQLQQSGAELVKPGASVRLSCTASGFNIKDTYINWVKQRPEQGLEWIGRIDPANGDTKYAPKFQGKATITTDTSSNTAYLQLSSLTSEDTAVYYCPKSGDYGWYFDVWGAGTTVTVSS
VL: DIVLTQSPASLSVTPGDSVSLSCRASQSISNNLHWYQQKSHESPRLLIKYASQSISGIPSRFSGSGSGTYFTLSINSVETEDFGMYFCQQSNSWLTFGAGTKLELKR
notes: Mouse IgG2b (Kappa), purified from hybridoma #21 on protein G; also called 杂交瘤细胞株#21
In the case of B1, in the assay with 人TIGIT-His, the Kd is roughly 10 pM. The same molecule yielded an EC50 with 人TIGIT of roughly 18 pM.

B2: 鼠单克隆抗体Mab7 (antibody, mouse IgG1, V domains shown)
VH: QVQLQQSGAELVSPGTSVKVSCKASGYAFTNYLIEWIYQRPGQGLEWIGVINPGSGGTIYNEKFKGKATLTADKSSNIAYLQLSSLTSDDSAVYFCAGSYGSSYTFDYWGQGTTLTVSS
VL: DIVMTQSHKFLSTSVGDSVSITCKASQHVSTAVVWYQQKPGQSPKLLIYSPSYRYTGVPDRFTGSGSGTDFTFTISSVQAEDLAVYYCHQHYSTPWTFGGGTKLEIKR
notes: Mouse IgG1 (Kappa), purified from hybridoma #7 on protein G; also called 杂交瘤细胞株#7
In the case of B2, the Kd with 人TIGIT-His was roughly 1 pM. In addition, in the assay with 人TIGIT, the EC50 is roughly 18 pM.

Values taken from CN111196852A (SICHUAN KELUN BOTAI BIOMEDICAL CO LTD; ANYUAN MEDICINE TECH …, dated 2020).
